From patent publication US20050136055A1 come the findings set out here.

Assay [1] has as its target Fc receptors (FcR) on cynomolgus leukocytes (cynomolgus). The experiment in a line: 125I-labelled IgG1 control on cynomolgus leukocytes, 4 C.
For assay [2], the target named is Fc receptors (FcR) on human leukocytes (human). The experiment in a line: 125I-labelled IgG1 control on human leukocytes, 4 C.

For the substance human IgG1 control mAb (antibody), the specific binding as % of the total bound radioactivity in assay [1] amounted to 51%; in assay [2] it was 56%.
